For the experiment, the target named is Human IgG (polyclonal, Innovative Research) (human). Kind of experiment: depot trapping: polypeptide mixed with fluorescein-labeled human IgG (1 mg/mL), 37 °C, centrifuged, pellet fluorescence; molar ratio 8 or higher.

B1: iTEP56-IBD (designed binder)
chain: GVLPGVGGVLPGVGGVLPGVGGVLPGVGGVLPGVGGVLPGVGGVLPGVGGVLPGVGGVLPGVGGVLPGVGGVLPGVGGVLPGVGGVLPGVGGVLPGVGGVLPGVGGVLPGVGGVLPGVGGVLPGVGGVLPGVGGVLPGVGGVLPGVGGVLPGVGGVLPGVGGVLPGVGGVLPGVGGVLPGVGGVLPGVGGVLPGVGGVLPGVGGVLPGVGGVLPGVGGVLPGVGGVLPGVGGVLPGVGGVLPGVGGVLPGVGGVLPGVGGVLPGVGGVLPGVGGVLPGVGGVLPGVGGVLPGVGGVLPGVGGVLPGVGGVLPGVGGVLPGVGGVLPGVGGVLPGVGGVLPGVGGVLPGVGGVLPGVGGVLPGVGGVLPGVGGVLPGVGGVLPGVGGVLPGVGGVLPGVGGGGGSTTYKLVINGKTLKGETTTKAVDAETAEKAFKQYANDNGVDGVWTYDDATKTFTVTE
Take B1: the percent of IgG in depots stood at 90%.

B2: iTEP112-IBD (designed binder)
chain: GVLPGVGGVLPGVGGVLPGVGGVLPGVGGVLPGVGGVLPGVGGVLPGVGGVLPGVGGVLPGVGGVLPGVGGVLPGVGGVLPGVGGVLPGVGGVLPGVGGVLPGVGGVLPGVGGVLPGVGGVLPGVGGVLPGVGGVLPGVGGVLPGVGGVLPGVGGVLPGVGGVLPGVGGVLPGVGGVLPGVGGVLPGVGGVLPGVGGVLPGVGGVLPGVGGVLPGVGGVLPGVGGVLPGVGGVLPGVGGVLPGVGGVLPGVGGVLPGVGGVLPGVGGVLPGVGGVLPGVGGVLPGVGGVLPGVGGVLPGVGGVLPGVGGVLPGVGGVLPGVGGVLPGVGGVLPGVGGVLPGVGGVLPGVGGVLPGVGGVLPGVGGVLPGVGGVLPGVGGVLPGVGGVLPGVGGVLPGVGGVLPGVGGVLPGVGGVLPGVGGVLPGVGGVLPGVGGVLPGVGGVLPGVGGVLPGVGGVLPGVGGVLPGVGGVLPGVGGVLPGVGGVLPGVGGVLPGVGGVLPGVGGVLPGVGGVLPGVGGVLPGVGGVLPGVGGVLPGVGGVLPGVGGVLPGVGGVLPGVGGVLPGVGGVLPGVGGVLPGVGGVLPGVGGVLPGVGGVLPGVGGVLPGVGGVLPGVGGVLPGVGGVLPGVGGVLPGVGGVLPGVGGVLPGVGGVLPGVGGVLPGVGGVLPGVGGVLPGVGGVLPGVGGVLPGVGGVLPGVGGVLPGVGGVLPGVGGVLPGVGGVLPGVGGVLPGVGGVLPGVGGVLPGVGGVLPGVGGVLPGVGGVLPGVGGVLPGVGGVLPGVGGGGGSTTYKLVINGKTLKGETTTKAVDAETAEKAFKQYANDNGVDGVWTYDDATKTFTVTE
Regarding B2, the percent of IgG in depots turned out to be 90%.

B3: iTEP28-IBD (designed binder)
chain: GVLPGVGGVLPGVGGVLPGVGGVLPGVGGVLPGVGGVLPGVGGVLPGVGGVLPGVGGVLPGVGGVLPGVGGVLPGVGGVLPGVGGVLPGVGGVLPGVGGVLPGVGGVLPGVGGVLPGVGGVLPGVGGVLPGVGGVLPGVGGVLPGVGGVLPGVGGVLPGVGGVLPGVGGVLPGVGGVLPGVGGVLPGVGGVLPGVGGGGGSTTYKLVINGKTLKGETTTKAVDAETAEKAFKQYANDNGVDGVWTYDDATKTFTVTE
For the molecule B3, the percent of IgG in depots was 55%.

Source of the values: US20220280615A1.
